± gives the uncertainty stated by the source.
Assay: amyloid nucleation score (Sup35N fusion, yeast selection) (log enrichment); library NNK1; higher = more nucleation; inactive = no reads after selection
Summary of the method: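 Yeast lacking psi expressed peptides of 20 random codons fused to Sup35N, received 100 μM copper sulfate for 24 hours, and were then grown for 7 days at 30°C on medium lacking adenine and uracil. Illumina sequencing of input and output plasmid inserts provided the reads. Nucleation scores are DiMSum log enrichments of output over input, centred on the mode of non-aggregating sequences. Any sequence with under 100 input reads was excluded.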

| Substance | amyloid nucleation score |
| --- | --- |
| HRSRLFAISERFEDIFYI | 0.611 ± 0.78 |
| HRTDYENFPSSKSRRMLVRV | 0.436 ± 1.2 |
| HRWSDVFPWRTVKMYQLSRC | 0.552 ± 0.76 |
| HSAALWIVWR | -0.358 ± 0.62 |
| HSAITNCRRVVTALIYRRVM | -0.875 ± 2.4 |
| HSALIQSIEGVINVGCGVKK | 1.25 ± 0.23 |
| HSCYLYTSLLIFDMCRYWFL | 0.719 ± 0.48 |
| HSFMYKENAGMSGTLR | 0.187 ± 0.48 |
| HSHKGGWEWVSWLRREYWIA | 0.618 ± 0.47 |
| HSIWSRERVVVGVIYVCNFN | 7.227 ± 0.048 |
| HSLSWDNKLCLCSAN | 0.099 ± 0.3 |
| HSMVFNLEWFKARQDGDLN | 1.5 ± 0.34 |
| HSNCVLVVDMLAQWLMRAGD | 0.384 ± 0.79 |
| HSVIIALRGCIRIG | 2.25 ± 0.15 |
| HTLTPAHPTNGVVT | -0.871 ± 1.3 |
| HTVPILRSAVPDSDARAKSQ | 0.493 ± 0.4 |
| HVGSATASRVMSGCGSTVSY | -1.83 ± 1.7 |
| HVMRSSGRHGRRRLT | -0.631 ± 1.1 |
| HVNSFKLGNGSFHFWY | 0.634 ± 0.38 |
| HWLPHDVLSMWW | 1.29 ± 0.67 |
| HWVDLVGESNNSISFAVVFC | 4.9 ± 0.079 |
| HYIPRRN | -0.016 ± 1.7 |
| HYNFKDMNYKPLIVIEMHEW | 5.33 ± 0.055 |
| HYQMLDAISRSSVYVLSKSR | -0.239 ± 0.29 |
| HYRSTGMMESSRG | 0.522 ± 0.6 |

| Substance | amyloid nucleation score |
| --- | --- |
| HYSTEEGRVCGSVKQQKAWL | -0.296 ± 0.52 |
| HYYANSGVCSTSVNLFRLGS | 6.529 ± 0.049 |
| IAAYLVVDILPGSI | -0.036 ± 0.6 |
| IAGFEVARPSNSKTFFPSKF | 2.07 ± 0.14 |
| IALASCVCLSACWTLDVNSM | 0.989 ± 0.31 |
| IAPTFSYMMERSLFTVGYDM | -0.042 ± 0.41 |
| IASMSVFPSHMCFVGTSTVR | -0.417 ± 0.34 |
| IATGMWLYVSLVTPQHSLVN | 0.101 ± 0.49 |
| ICAPVEIL | -0.176 ± 0.76 |
| ICFNFYITYSASDALSRTCY | 8.287 ± 0.047 |
| ICGQLPISMGVLSIFWWFES | 0.331 ± 0.79 |
| ICQTFASCEFDGCLLH | 3.47 ± 0.12 |
| ICSNGLLIMNVE | 1.13 ± 0.97 |
| ICSWVHDQWAFYYISLYYVK | -1.2 ± 0.74 |
| ICTVSLLYFVYDKYCHNATL | -0.444 ± 0.56 |
| ICVLKKFLVSIQSVIY | 1.46 ± 0.74 |
| IDEVEGIRRFGLWELRLVCP | -0.225 ± 0.28 |
| IDHSTRVNPGEPLQVLRGGL | 4.29 ± 0.088 |
| IDIWVLLMNHGMKASPGDLE | -0.479 ± 0.42 |
| IDKMELFSRSKHKWYMASAI | -0.267 ± 0.79 |
| IDKSVGLVHKTHYWFQPWYK | 0.445 ± 0.43 |
| IDMCYWISVPAKNVHVIDIP | 1.29 ± 0.6 |
| IDRSLETTTVRGLVVRCYNG | 0.369 ± 0.35 |
| IDSVQFTLQTASHPRSDDDC | -0.143 ± 0.58 |
| IDSYITNKGSRSAKCHPDDS | -0.701 ± 1 |

| Substance | amyloid nucleation score |
| --- | --- |
| IECCFAYGRYLMWVGMYGSK | 0.79 ± 0.59 |
| IECLLDRILDTLYVRLNFIG | 0.616 ± 0.79 |
| IEGMCGDMVMTYYIFLDSCG | 1.07 ± 0.36 |
| IELDYYIINIVWPPAGNYRH | 6.734 ± 0.062 |
| IENGLYMSLYLGNQRI | 1.47 ± 0.29 |
| IERKLCKIGVMK | 0.597 ± 0.65 |
| IFAMV | inactive |
| IFCGRIKQCSLASHCKLEWG | 0.69 ± 0.41 |
| IFCYMNYGS | 0.554 ± 0.51 |
| IFIFYGTRGSFRLRVAY | 2.72 ± 0.24 |
| IFLGPVLFVGDTRFCHVLIN | 7.789 ± 0.049 |
| IFLYDRLNGDPFSSRW | 0.729 ± 0.9 |
| IFRTIERTVSIFNRSSR | 0.222 ± 0.72 |
| IFSNQSATLGLSVSSWIYLE | -0.983 ± 0.4 |
| IFTFQLLFRNSQRSMYSSVL | 0.651 ± 0.63 |
| IFTLGVALFSIVM | 4.24 ± 0.067 |
| IFVALRRD | -1.29 ± 1.3 |
| IFVVGAGLHDKTNGYVYRSR | 0.164 ± 0.24 |
| IFVVGKGDLGCCQI | 0.967 ± 0.35 |
| IFYLRFPVLLVISPRCALYI | 0.623 ± 0.75 |
| IFYYNRCWLTRYRVICLESI | -1.38 ± 0.51 |
| IGCSCGLHT | inactive |
| IGDDLLGVFLYIETNSTPVF | 0.655 ± 0.74 |
| IGDRNVNLGVQVVVMKE | 7.031 ± 0.048 |
| IGGRGVLKSVSTLTCVLWTW | 0.473 ± 0.92 |

| Substance | amyloid nucleation score |
| --- | --- |
| IGHVNTYCCIADWSWVRGAG | 8.895 ± 0.044 |
| IGMLGLCGRIPMQAEGGSFR | 0.712 ± 0.52 |
| IGSFGNRYRVPMRTASGYNM | 0.623 ± 1 |
| IGTLFTSNSYFWYLVVG | 2.51 ± 0.13 |
| IGTSFVYNYFDHFLK | 5.59 ± 0.062 |
| IHGNDPMLTVGSSMYV | 0.323 ± 0.41 |
| IHGSRCVPKSQD | 0.201 ± 0.38 |
| IHIWSSCLSNYKVILGAEVL | 0.407 ± 0.28 |
| IHKAKISWFLCYMLDDT | 0.097 ± 0.33 |
| IHSGQAEMGTLRYHSNKCKD | -0.554 ± 1.7 |
| IHVLADIYCVWGGLKEFWTS | 0.374 ± 0.65 |
| IIASGHDFL | -0.732 ± 0.87 |
| IIIYRNYALMEYDVGRV | 0.75 ± 0.76 |
| IINMGTYRSTMLNILLKEKC | 2.88 ± 0.27 |
| IKHLKNMGFCVRESLYSDRF | -0.042 ± 0.59 |
| IKLFLRNIV | -0.252 ± 0.59 |
| IKLQWS | -0.323 ± 0.53 |
| IKMYACMYWLVEFLVN | -0.046 ± 0.86 |
| IKRTCYPLVRGVPNQIRNLK | -0.091 ± 0.68 |
| ILCIESLSGFPWLICIENSL | 0.135 ± 0.39 |
| ILCSLYYICT | 2.74 ± 0.071 |
| ILCTIFHRTCFLRFRILEHF | inactive |
| ILDVKAPR | 0.446 ± 0.64 |
| ILFDSHANFVGMSCQYRSGR | 5.72 ± 0.1 |
| ILGKFFIDLSDI | -1.16 ± 0.43 |

| Substance | amyloid nucleation score |
| --- | --- |
| ILGVFNTIVVFKR | 4.9 ± 0.066 |
| ILICKSVRVQYTLSKLW | 1.8 ± 0.17 |
| ILKEIMIGGRDRTDDWKSHG | -1.3 ± 0.8 |
| ILLLVSISMVKESDQWLING | -0.519 ± 0.51 |
| ILLRSNIFMYFNMTEMPNSC | 6.798 ± 0.055 |
| ILNGSPKWNGWRTITCSAVS | 0.667 ± 0.44 |
| ILRCRGNALNAYWRGSFNR | 4.59 ± 0.078 |
| ILRRRMHDG | 0.247 ± 1.4 |
| ILSLIVFNYDYCSKVWNLLG | -1.53 ± 0.66 |
| ILTRRSLLRLWIIISDKSFR | -0.695 ± 1.4 |
| IMFYMTVDGCLSVEYIFR | -0.704 ± 0.42 |
| IMKLYPLRQSG | 0.453 ± 1.2 |
| IMKSFMDATYVSCFWILMPA | 1.57 ± 0.53 |
| IMPSCKLLAAHVADYVFLMR | 0.863 ± 0.84 |
| IMRNVQTDA | 0.383 ± 0.52 |
| IMYNCRYWSGVTLHYSVVQH | 1.89 ± 0.16 |
| INFDRNFF | -0.54 ± 0.31 |
| INGPCLLTYLPLAEVGCCLV | 0.25 ± 0.55 |
| INIGFMKGV | 0.416 ± 0.61 |
| INLCVPPRNVLFIDRCWTVV | 1.29 ± 0.3 |
| INLVTKYHLSITCSHSCQA | 7.204 ± 0.05 |
| INMLTWGWELILSGSSVYED | -0.151 ± 0.41 |
| INMRKYSNTGSGRLIFNFAF | 6.039 ± 0.052 |
| INRTTRNLLSRCRWYNCYKR | 0.155 ± 1 |
| INRVSLCTVEAVLSHEDACG | -0.494 ± 0.32 |

| Substance | amyloid nucleation score |
| --- | --- |
| INSAHYELN | -1.51 ± 2.4 |
| INVFREAYIIYCRCEGSGGD | 7.507 ± 0.059 |
| INVIPDLD | -0.572 ± 0.5 |
| INVWNLSWGNMIRAKNHLGV | -0.107 ± 0.53 |
| INYRLYGVIGVAGTGPG | 0.1 ± 0.33 |
| IPGGLNKERPYWYCTQMAGT | 1.25 ± 0.55 |
| IPKVRTRVLGIISTTSLLGG | 0.037 ± 0.97 |
| IPLVVVNPSARFRLRTKIIR | 0.908 ± 0.88 |
| IPNISGYPHICMESGGSLVC | 0.004 ± 0.61 |
| IQGGKNYRKQDHTRHVTTGT | -1.37 ± 2.4 |
| IRAFSWTIMLLFYCWWHVEN | 0.402 ± 0.86 |
| IRISVAVHVIVMNYMYPYLI | -0.44 ± 1.2 |
| IRLMRWGRCVGISVEGVC | 0.789 ± 0.46 |
| IRSSFMLRCIVSYVPCNTGL | -0.027 ± 1.1 |
| IRSVGRSLRFMYS | 0.204 ± 0.46 |
| IRSYHLVFVGM | 5.13 ± 0.1 |
| IRTVAR | 0.142 ± 0.38 |
| IRTVKADNMRIWQAQRSSEI | 0.157 ± 0.87 |
| IRVSFIVQSCILSALEDALN | 2.68 ± 0.13 |
| ISAKH | -0.89 ± 0.65 |
| ISCQQSE | -1.57 ± 2.4 |
| ISCVDWAIKCGVVGSLVSET | 0.681 ± 0.99 |
| ISFDSLWDCSYS | -0.232 ± 0.23 |
| ISFYTVRWLAAGRRFLISF | 0.224 ± 0.59 |
| ISICTMLLFSPVS | -0.894 ± 0.83 |

| Substance | amyloid nucleation score |
| --- | --- |
| ISINQIMFAKGPYFERLAEN | 4.07 ± 0.096 |
| ISNDYGATMFNLGCYI | 1.17 ± 0.18 |
| ISPCDIYRHLSIKGQSCDLI | 0.004 ± 0.32 |
| ISPRHNYPQILMVLLIKVYF | -1.33 ± 1.3 |
| ISSECQVICYLLHEFSPASV | 1.35 ± 0.25 |
| ISSLESRTTMRVV | 0.377 ± 0.5 |
| ISSYTCCFYSYHQSHVMPLG | 5.848 ± 0.051 |
| ISTCLRTSFYVDVGNMSFCN | 0.206 ± 0.44 |
| ISTNLHGDIKMVFVAIPWQE | 4.85 ± 0.09 |
| ISWVPDAVNFFACMHW | 0.094 ± 0.51 |
| ISWYGFAT | inactive |
| ISYGKDNESGCLLHYFHAWV | inactive |
| ISYQVLFIDRWGCRSLPCVW | 0.395 ± 0.39 |
| ITAWWQVSL | 0.565 ± 0.36 |
| ITDCPCRGISVCVV | -0.288 ± 0.26 |
| ITLRVLFFRGKVLFTSGIQE | 0.71 ± 1.1 |
| ITQIADLWHKMT | -0.954 ± 0.89 |
| ITVST | -0.134 ± 1.4 |
| ITVSYDKGFSFNLWGIHFKV | 0.071 ± 0.28 |
| IVDCYSLDRYRVLLWSS | 0.566 ± 0.36 |
| IVEMHYMAGWTGMEMMSWAH | 0.413 ± 1 |
